70 sequences from the domain aggregation screens of Martell et al. (2025) can be followed below.

This data set is described as follows: soluble fraction after stress (log2 fold change); higher = more stays soluble; pooled small domains, quantitative proteomics. The following applies: stress: 75 degC.
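Also: 20 min heating vs room temperature control held 20 min.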

As to “HMSNLVEVPAVIGRMKEDAITMLISAGLEPAVTYDEYPLVKENLVADQSVAPGQKVEKGSFVTITVSRS”, the “soluble fraction (log2)” value was -0.0726.

“HMSNMESLIGREATVIEMIPAEDVGRVKIDGDEWQAVLAREDDNEPRRDIQVGEKVIIVSYDSIILTVKTK”: the “soluble fraction (log2)” value came out at 0.0742. For “HMSNNENSILEKLNSFSGKKIKVSHTIGSLAARLDEYPKIKMWLYKRIRENSINEQAYKYLIFIIERKVR” the value was -1.34; for “HMSNPADDVVDLLRQLRLPHMRAAAPELLATAKAQRWDPAEAIRALLTEELAGRQASSINARRK”, -0.477; for “HMSNPPIRIGKKALHELLTTWLSLLSRDGVAYLVVQKNLGADSLTAWLRDQGFPSEKIASKKGFRIIEVH”, -0.315.

As to “HMSNRDNPVVLDFKKVKSTEQLDNILEEYIRENFEGYTVKGRMFSSDEGKFIIALALKDDDGKRALVYFDV”, the “soluble fraction (log2)” value is -1.04. For “HMSNRIDKIKLNHWLNIRKTSLDVLNNLLSKHLNHKINFENLENLDEQAIEKISEVLSIPKNKLLINDDVP” the value was -0.219; for “HMSNTVEDLIDDIGTVTKDSKDKIDAARKAYDGLTEDQKKLVPDSVLKTLTDAEAAYAKLTK”, 0.567. Turning to “HMSNWYGTVVKIQPRPNAQAADTAVVKLLDGSEHRFPVWADHLTTIEVGSRLKKLSGGWDPVLMDPEETF”, the “soluble fraction (log2)” value is -0.669. For “HMSNWYKNNETDQIWWKDTPDSVGEWLFSFDKKQVFNMFADYPHNLTPEQKKIFDEENPEWSDRP” the value was -0.351; for “HMSNYPYLLRTYEGKLAVFTDDLVQPDLVFDVYVRTLPELDQQQLSRGIRVKTYDELTSMIEDYI”, -2.22; for “HMSPAVEDYLEQIHNLIAQKGYARVVDIAGNLKISQASVTNMIQRMDADGLVVYERYRGVVLTETGRK”, -1.28. For “HMSPDLNEVEEKVFRALNGVESMHVNKLGIELNLPVSELFFTLLELEMKNVVKALPGGMYKL” the value was -2.26; for “HMSPFYILDEVEAALDDTNLGRLLEIYEELRENSQLLVITHQKRTMEVGDALYGVTMRGDGVSAVISQRLR”, 0.306; for “HMSPKYLELVRWINTQIQEKKLTAGQKMYSENELKEMFGVSRQTVRHAISVLEGEGMIRRVRGSGTYINDN”, -2.42. For “HMSPLALLTPRELDILRAMTAGASNKEIARQFAIAETTVKIHVQHILRKLDVTTRVHAAVMASESGL” the value was -3.05. For the sequence “HMSPPALAVQRDGSNVQISWPGAEEGWRLESSAEPSGAAWDLIAQNPTPVGGRWTVSLTEPTGRRFYRLVK”, the “soluble fraction (log2)” value was -0.0804. “HMSPSLVEAMRLRMYEMGLNQAKLSELLGVSPSRVSDYLTGRSEPTLKVARDISRKLNIDASIVLG”: the “soluble fraction (log2)” value is -1.68. For “HMSPSQFRSKSLLVEINFASRQMDGEILQGDYAGKRLSELTEAEVQELTAWLKQSDRESFVLLQAYLLRSG” the value was -2.46.

As for “HMSPSSPNQILGQYPKTKNDIILSSGRYGPYLKYNKKNYSLGNNISVEKLSLEEAVKIIDLKDKK”, the “soluble fraction (log2)” value was -0.291. For “HMSPTDKATVNVYALNVRTGPGTNYKVLGSVIKGTELQVLGSSGKWLKVKYGNREAYVAGWLVK” the value was -2.85. For “HMSPTEQEKIGLFIKKLREEKNLTQEAFASLLKTSQSAVARIESGNQNITIEQLMKIGEVLNHNIVSI” the value was -0.212; for “HMSQDPLETYYPQWSAAVKQSNPDAEIIRDTDGKYYVEGMTKNRVAVIYENPHLVRLVNATTNVHVE”, 0.0377. On to “HMSQDTLIGRVGVIVIGQARTGSPAQVRVKDGFGQTHYVMAEPDSEGVLKQGEAVLLVSLEGNTFKAILNP”, for which the “soluble fraction (log2)” value was -2.41.

Turning to “HMSQDVLLKRSGDQIEVKITEVGEDYLKYKKKGFENGPDFKINTSDVFMVTFANGEKMMFEES”, the “soluble fraction (log2)” value was -0.033.

Regarding “HMSQEAKLAMPVTDLRLSARTLNALELANIRTVRDLVSHTEEQLLELRNFGETALAEVKEKLAALGLRLGM”, the “soluble fraction (log2)” value is 0.0588.

“HMSQESIMPNLVGSTEDEAKAIAVEYGFQLNVISRVNNSQYPAGVIIDQNVDEGVRIKAGYPVGVTIS”: the “soluble fraction (log2)” value is -0.237. “HMSQIAENNQKYVGTIQKVLVEGTSKNNDDMLTGRTDSNKVVIFEGDKKLIGNMVELKIVSEHMWYLKGEL”: the “soluble fraction (log2)” value is -0.0812. For “HMSQISKLWRPSEDVTEILTRSGMDSEFLEGLIPEFIIYWSERADVLVSYNSKFIEHARLKWAQHSAEIKT”, the “soluble fraction (log2)” value was -4.48. For “HMSQLLHELLAHVLKDRIISGEWPAGSRIMSEHALQERYGVSRGTVRRALAQLVQEGLLVQRKGKGTFVTR” the value was -2.59; for “HMSQLVTGVLRNLNDISEKIAAGKAVPEMLGRLENMQQMIANLKGNEGLIKSISILTRSAQDALR”, -0.484. For “HMSQPLYWQIRRMVIDHDDANDVLQNTFIKAWSNIGSFRGDAKFSTWLYKIAVNESITFINKKKVQN” the value was -0.44; for “HMSQPYFELAAADMEALRNALSTIREIESVVLSGKIFHVEVREDLDPGTMNKLAFERGITLTHLVKKKN”, -2.89. Regarding “HMSQRINLNSASIEDMQSLDISNEKIDSIIDYRNRYGNIHNIYELLKIPGITIGDIHSIRNAVTVEIPH”, the “soluble fraction (log2)” value was -0.104. On to “HMSQSLSGWAAKDLEVKSGADASYRTVGRLPKGSKVSGKIINGYLHIEFDGSMRYVPVSGISKTE”, for which the “soluble fraction (log2)” value was -0.6.

On to “HMSQSYHLADRGQSLGTLDYQAVLVGLATGRLSPDTLSWQEGEAGWVALRQRPEFASGVSAVASL”, for which the “soluble fraction (log2)” value came out at 0.404. In the case of “HMSRAHTELEEKLLTMLEENDMTLPMRVISNIASRIEGIIIPEEKILEVLKKSYDRYREHQMD”, the “soluble fraction (log2)” value was -0.267. For “HMSRARSRQTSMLEAVAGLGPARRRALLKQFGGLQGVLRAGIEDLSRAPGIGPALAQAIFEHLHPGA” the value was -0.482. For “HMSREQARRFYFDTWAKHRASQPLTDLEKIALTVMLLHPEYHSLLDKPDHYVDKDYSPEAGQTNPFLHM” the value was -1.72. For “HMSRIDRKGLTSQIVNHLSKNPGKNFTLKQFFRNLKLNTHPLKMLAVDVLNKLLDTNFITRNEDGEFFLKA” the value was 0.154; for “HMSRLMIVTPDGRIMDDVPEFGEVRTTTDVNGRVLVLDRNNVVIGFEMTPREYRREFGRNPF”, -1.12. As for “HMSRQAPIGHRIRGRRKDIGMTQNALAKAAGISPSYLNLIEHNRRSIGGGLLMRIAAILDIHPHTL”, the “soluble fraction (log2)” value is -2.87. For “HMSRTLLVYVTGAVRQPGVYELPEGSRFFDAVKAAGDVLPYAVMEDINMAEPLSDGMKIHIPLDPEQ” the value was -0.687. For “HMSRVFSPSELEIRHAQDVFQALEEAKRQGKGAVSLNGKMIDAPIVARAKLVLEAAAAIYGED” the value was -0.379. For “HMSRVHHGFNISIARNRKGLKQAALADMLGISQQRLSQLENQRVVKDEILEKVSEATGVSVEDLKTIE” the value was -0.08; for “HMSRVSVDGEEVNFEGEIPDDPSRIYELLMGALSEQSRVVVKFFVDGKDALLDEGFPSRYQMIEAESV”, -0.0462. As for “HMSRYAFEGNVVRLNQKDFDSWKALFTNIDLVSELTRLDIEFTHDKPKNWFSTASAKLNYQNKNAY”, the “soluble fraction (log2)” value was -2.51.

Turning to “HMSRYLLPYAFARTQQVLLEEKSGELTLWMHSGSNLGGISEVTRKYAVQHVTHEPMDALLNRISSAYAN”, the “soluble fraction (log2)” value is -3.34.

As for “HMSSAVKRALAELPENWRMIVYYRVVEGLSYAEIAKVLDIPDGSVMSGLHRGKKMLRGLLLEYAQQEGYD”, the “soluble fraction (log2)” value is -1.79. For “HMSSDDEAFKRELVGLIPHLRAFARTLTGDPTAADDLAQDAMMKAWDARASYQMGTNMKAWTFMILRNQFY” the value was -2.53; for “HMSSDKVWSFEASGKQLQASYVAFENETVYLRASEDGSLLQFPLTDFGMKDQLVVLELYELSAKINRSN”, -0.934. For “HMSSDLSNVVKIIDTLKHKKGALLPILHQIQREIGYIPLKTIDTIAKKLQQTPAEIHGVISFYHQFRTS” the value was 0.0116; for “HMSSEASALRGWLQTSQYQGSVTLFANALNVPLKTVEDWVYGRSKPSLQHWSQLYEATGLPEYQQ”, -0.387; for “HMSSFRDISGTVYVKASAANLRSEPNTSSLIVDTLYYGASLQRISTNDIWTKVKTGNGQIGFMDNSLFQT”, -3.12. For “HMSSGSLLTEREIEILAEMAKGLTNKAIGEKLFISVATVKTHILNIYRKLEVSSRVTAVNKAKQMRL” the value was -2.43. For the sequence “HMSSGTAYATDAVNVRSGPGTSYTVLGYLSRGEKVTITGTVSNGWTQIQLPGNRLGYVSSAYLSASYPS”, the “soluble fraction (log2)” value was -0.85. Regarding “HMSSHNIALDQDVVVTQLKGKVYLVAADGSQKQLAEGDILPKDAVLITPEGASFKGGNQTFTLS”, the “soluble fraction (log2)” value was 0.103. For the sequence “HMSSIFTRIIAGEIPSYKVAEDENYYAFLDINPLTKGHTLVVPKMEVDYIFDLDDKTLAGMMLFAKKG”, the “soluble fraction (log2)” value is -0.129.

In the case of “HMSSKIKYSEFITMLDKGEVESVVLKSDTLTITLKHGTGVAAQTKTTTLMEDLSELTKRLEKAGIKDFDK”, the “soluble fraction (log2)” value is -1.38.

“HMSSLDTLTARETQILAEMAQGKNNAAIAAAVSVSERAVEKHTNSIFAKLGLSEEKDVNRRVMAVLLFLGR”: the “soluble fraction (log2)” value is -3.6. For the sequence “HMSSLEQVYPNPVSSILKLNSFIKNYKILNATGHEVLKGSGNTINVGKLPSGSYFLITSENYSIKFIK”, the “soluble fraction (log2)” value was -1.08.

On to “HMSSLSGVRRTLLDSLGMPPDASDEELADRREELRGSLDTAPQARRKWIEQQLARIDAITALDASG”, for which the “soluble fraction (log2)” value was 0.106. For “HMSSPEAAEVQRLLKDGQHVQALKIIDESLARNPKDPQMRFRRGVALSMLDRKNEALAVFQKLVED” the value was -0.182; for “HMSSPRAIYSAIQKAVGEDMILYREDVQIILDKLDADLLVDDILEKMELDGTLVRQRDGTWLLL”, -0.801.

For the sequence “HMSSQVFLGQKNSIAKYDLNENKPIWTKEIKGTPLILSTWKDMLLIQIQTWVSYTHMLVKQENGQTVWE”, the “soluble fraction (log2)” value worked out at 0.288. For “HMSSRLEIEITSKIDDLSHTWRAVGAKQPKGNIKSSLLPSGVKVGETFRVEADFLLDGIEIVSVLPP” the value was -1.86; for “HMSSSLDQLTVREREILAQVSRGLSNKAIARELGISHDTVKLHVRHILSKLGFSSRVEAAVFAIEHRIG”, -2.35; for “HMSSSMDAIAEIIRSIPRGDHLTAPEVYELAKQRGLKLSLSTVYRTLNKLKVVGDVITVSGDRGLRYESV”, -0.336. For “HMSSTPEPPQAVLDLVNLREQARAGKDWTQSDAFRQQIAALGWTVKDTKDGPVVSLSPTTTE” the value was 0.392; for “HMSSTSTMTVAEATIGRKVKHDKFGEGTIITVADVNGDKKLTIAFNQQGVKMLMLSMAKLEL”, -3.36.
